Laboratory results: patent US20030206865A1, “Conjugates of macrocyclic metal complexes with biomolecules and their use for the production of agents for NMR diagnosis and radiodiagnosis as well as radiotherapy” (Schering AG, priority 2001, published 2003)

Test: Relaxivity measurement of BSA conjugates in aqueous solution and in plasma
Assay type: physicochemical
Details: relaxivity per mol of gadolinium, calculated from the measured values, +37° C., 20 MHz
Description: In this example, the relaxivities of the conjugates from Examples 30-38 were compared with the relaxivities of two comparison substances. As comparison substances, Gd-DTPA (1) with the formula: [drawing 16]
and Gd-GlyMeDOTA (2) with the formula: [drawing 17]
which were reacted in each case with bovine serum albumin (BSA), were used.
The measurements were made in each case in aqueous solution and in plasma at +37° C. and a frequency of 20 MHz. The results are summarized in Table 2 below, whereby the indicated relaxivities per mol of gadolinium were calculated from the measured values: […]

For “Gd-GlyMeDOTA [Vergleichssubstanz 2, reference compound]”, the “R1 (H2O)” value (aqueous solution) was 18.3 L/mmol/s and the “R1 (Plasma)” value (plasma) was 20.8 L/mmol/s.
